This data set concerns the molecule itself. Nature of the data set: SEC.

B1: thiostrepton resistance methyltransferase Tsr (wild type) (enzyme)
chain: MTELDTIANPSDPAVQRIIDVTKPSRSNIKTTLIEDVEPLMHSIAAGVEFIEVYGSDSSPFPSELLDLCGRQNIPVRLIDSSIVNQLFKGERKAKTFGIARVPRPARFGDIASRRGDVVVLDGVKIVGNIGAIVRTSLALGASGIILVDSDITSIADRRLQRASRGYVFSLPVVLSGREEAIAFIRDSGMQLMTLKADGDISVKELGDNPDRLALLFGSEKGGPSDLFEEASSASVSIPMMSQTESLNVSVSLGIALHERIDRNLAANR
Usually stoichiometry N stands for the number of molecules, sites or subunits per partner or assembly. As for B1, the “stoichiometry N” value was determined as 2.

B2: Tsr N129A mutant (enzyme, S. cyaneus, UniProt P18644 1-269, looked up)
chain: MTELDTIANPSDPAVQRIIDVTKPSRSNIKTTLIEDVEPLMHSIAAGVEFIEVYGSDSSPFPSELLDLCGRQNIPVRLIDSSIVNQLFKGERKAKTFGIARVPRPARFGDIASRRGDVVVLDGVKIVGAIGAIVRTSLALGASGIILVDSDITSIADRRLQRASRGYVFSLPVVLSGREEAIAFIRDSGMQLMTLKADGDISVKELGDNPDRLALLFGSEKGGPSDLFEEASSASVSIPMMSQTESLNVSVSLGIALHERIDRNLAANR
With B2, the “stoichiometry N” value was 2.

Source of the values: article PMC4661090 (FEBS letters, 2015).
